We go through 96 variants from the Human Domainome abundance scans (Beltran et al. 2025).

B1: Zinc finger MYM-type protein 2, residues 463 to 506; numbered along this chain, Q9UBW7 (parent)
chain: IMNCCEQCGEYLPSKGAGNNVLVIDGQQKRFCCQSCVSEYKQVG
B2: Transcription intermediary factor 1-beta, residues 620 to 671; numbered along this chain, Q13263 (parent)
chain: TLDDSATICRVCQKPGDLVMCNQCEFCFHLDCHLPALQDVPGEEWSCSLCHV

± gives the uncertainty stated by the source.

The first series covers variants of B1. Put plainly: abundance fitness (aPCA) (normalised: wild type 0, dead -1); higher = more abundant; growth selection in yeast, the domain comes from the species named. The note with it: Homo sapiens.
As to IMNCCEQCGEYLTSKGAGNNVLVIDGQQKRFCCQSCVSEYKQVG [P13T], the abundance fitness is -0.094 ± 0.13. With IMNCCEQCGEYLRSKGAGNNVLVIDGQQKRFCCQSCVSEYKQVG [P13R], the abundance fitness is -0.515 ± 0.16.

Turning to IMNCCEQCGEYLPSGGAGNNVLVIDGQQKRFCCQSCVSEYKQVG [K15G], the abundance fitness was determined as 0.103 ± 0.075. For the variant IMNCCWQCGEYLPSKGAGNNVLVIDGQQKRFCCQSCVSEYKQVG [E6W], the abundance fitness was -0.375 ± 0.09. Turning to IMNCCEQCGEYLPFKGAGNNVLVIDGQQKRFCCQSCVSEYKQVG [S14F], the abundance fitness was -0.548 ± 0.18.

In the case of IMNCCEQCGEYLPWKGAGNNVLVIDGQQKRFCCQSCVSEYKQVG [S14W], the abundance fitness was -0.454 ± 0.092. As for IMNCCEQCGEYLPSKGAGFNVLVIDGQQKRFCCQSCVSEYKQVG [N19F], the abundance fitness was -0.023 ± 0.096. The same measure, in the same setting: then IMNCCEGCGEYLPSKGAGNNVLVIDGQQKRFCCQSCVSEYKQVG [Q7G], with -0.137 ± 0.073; and IMNCCEQCGEYLPSKGAGNNVLVIDGQQSRFCCQSCVSEYKQVG [K29S], with -0.329 ± 0.11. For the variant IMNCCEQCGEYLPSKGAGNNVLVIDQQQKRFCCQSCVSEYKQVG [G26Q], the abundance fitness is -0.083 ± 0.12. The same measure, in the same setting: then IMNCCEQCGEYLPSKGAGNNVLVIDVQQKRFCCQSCVSEYKQVG [G26V], with -0.243 ± 0.1; and IMNCCEQCGEYLPSKGAGNNVLVIRGQQKRFCCQSCVSEYKQVG [D25R], with -0.229 ± 0.11; and IMNCCEQCGEYLPSKGAGNNVLVIGGQQKRFCCQSCVSEYKQVG [D25G], with -0.076 ± 0.082.

Consider IMNCCEQCGEYLPSKGAGNNVLVIDGQQKRFCGQSCVSEYKQVG [C33G], for which the abundance fitness was -0.023 ± 0.069. With IMNCCEQCGEYLPSKGAGNNVLVIDGQQKRFCTQSCVSEYKQVG [C33T], the abundance fitness is -0.031 ± 0.11. Regarding IMNCCEQCGEYLPSKGAGNNVLVIDGQQKRFCLQSCVSEYKQVG [C33L], the abundance fitness was -0.385 ± 0.097.

As to IMNCKEQCGEYLPSKGAGNNVLVIDGQQKRFCCQSCVSEYKQVG [C5K], the abundance fitness was -0.38 ± 0.16. On the same count and under the same terms, the result for IMNCCEQCGEYRPSKGAGNNVLVIDGQQKRFCCQSCVSEYKQVG [L12R] reads -0.498 ± 0.072.

Regarding VMNCCEQCGEYLPSKGAGNNVLVIDGQQKRFCCQSCVSEYKQVG [I1V], the abundance fitness came to 0 ± 0.1.

In the case of MMNCCEQCGEYLPSKGAGNNVLVIDGQQKRFCCQSCVSEYKQVG [I1M], the abundance fitness was determined as 0.169 ± 0.22.

As to PMNCCEQCGEYLPSKGAGNNVLVIDGQQKRFCCQSCVSEYKQVG [I1P], the abundance fitness was -0.222 ± 0.33. Still for that read-out and setting: then IMNCCEQCGEYLPSKGAGNNRLVIDGQQKRFCCQSCVSEYKQVG [V21R], with -0.264 ± 0.086; and IMNCCEQCGEYLPSKGAGNNVLVIDGQQKRFCCQSCVSEYKQRG [V43R], with -0.039 ± 0.1.

IMNCCEQCGEYLPSKGAGNNVLVIDGQQKRFCCQSCVSEYKQAG [V43A]: the abundance fitness was determined as 0.001 ± 0.084. The same measure, in the same setting: the result for IMNCCEQCGEYLPSKGAGNNVLVIDGQQKRFCCQSCVSEYKQSG [V43S] reads -0.159 ± 0.16; that for IMNCCEQCGEYLPSKGAGNNVLVIDGQQKRFCCQSCVSEYKQQG [V43Q], -0.055 ± 0.12. On the same count and under the same terms, the result for IMNCCEQCGEYLPSKGAGNNVLVIDGQQKRFCCQSCVSEYKQVL [G44L] reads -0.262 ± 0.17. For IMNCCEQCGEYLPSKGAGNNVLVIDGQQKYFCCQSCVSEYKQVG [R30Y], the abundance fitness is -0.354 ± 0.41. On the same count and under the same terms, then IMNCCEQCGEYLPSKGAGNNVLVIDGQQKGFCCQSCVSEYKQVG [R30G], with 0.026 ± 0.071; and IMNCCEQCGEYLPSKGAGNNVLVIDGQQKRFCCQSCVWEYKQVG [S38W], with -0.197 ± 0.092; and IMNCCEQCGEYLPSKLAGNNVLVIDGQQKRFCCQSCVSEYKQVG [G16L], with -0.214 ± 0.08. The same measure, in the same setting: the result for IMNCCEQCGEYLPSKGAGNNVLVIDGQQKRFCCQYCVSEYKQVG [S35Y] reads -0.08 ± 0.22; that for IMNCCEQCGEYLPSKGAGNNVLVIDGQQKRFCCQLCVSEYKQVG [S35L], -0.136 ± 0.07; that for ILNCCEQCGEYLPSKGAGNNVLVIDGQQKRFCCQSCVSEYKQVG [M2L], -0.104 ± 0.093. Same read-out and setting: then IWNCCEQCGEYLPSKGAGNNVLVIDGQQKRFCCQSCVSEYKQVG [M2W], with -0.687 ± 0.18; and IMNCCEQCGEYLPSKGAGNNVLVTDGQQKRFCCQSCVSEYKQVG [I24T], with 0.254 ± 0.15; and IMNCCEQCGEYLPSKGAGNNVLVIDGQQKRFCCQSCVSEYKNVG [Q42N], with 0.438 ± 0.38. For IMNCCEQCGEHLPSKGAGNNVLVIDGQQKRFCCQSCVSEYKQVG [Y11H], the abundance fitness turned out to be 0.298 ± 0.11.

As to IMNCCEQCGEFLPSKGAGNNVLVIDGQQKRFCCQSCVSEYKQVG [Y11F], the abundance fitness was -0.133 ± 0.087.

IMNCCEQCGEWLPSKGAGNNVLVIDGQQKRFCCQSCVSEYKQVG [Y11W]: the abundance fitness was -0.237 ± 0.075. Still for that read-out and setting: the result for IMNCCEQCGEYLPSKGAGNNVLVIDGQMKRFCCQSCVSEYKQVG [Q28M] reads -0.123 ± 0.15.

Consider IMNCCEQCFEYLPSKGAGNNVLVIDGQQKRFCCQSCVSEYKQVG [G9F], for which the abundance fitness was -0.001 ± 0.17. In the case of IMNCCEQCQEYLPSKGAGNNVLVIDGQQKRFCCQSCVSEYKQVG [G9Q], the abundance fitness is -0.067 ± 0.15.

In the case of IMNCCEQCLEYLPSKGAGNNVLVIDGQQKRFCCQSCVSEYKQVG [G9L], the abundance fitness was -0.289 ± 0.1. With IMNCCEQCGEYLPSKGAGNNVLVIDGQQKRFCCQSCVSQYKQVG [E39Q], the abundance fitness is -0.144 ± 0.2. The same measure, in the same setting: the result for IMNCCEQCGEYLPSKGAGNNVLVIDGQQKRFCCQSCVSPYKQVG [E39P] reads -0.285 ± 0.13. IMNCCEQCGEYLPSKGAGNNVLVIDGQQKRFCCQSCVSVYKQVG [E39V]: the abundance fitness turned out to be 0.086 ± 0.087. Same read-out and setting: the result for IMNCCEQCGEYLPSKGAGNNVLVIDGQQKRFCCQSCVSWYKQVG [E39W] reads -0.478 ± 0.098; that for IMNCCEQCGEYLPSKGEGNNVLVIDGQQKRFCCQSCVSEYKQVG [A17E], 0.116 ± 0.096; that for IMNCCEQCGEYLPSKGQGNNVLVIDGQQKRFCCQSCVSEYKQVG [A17Q], -0.069 ± 0.1. Still for that read-out and setting: the result for IMNCCEQCGEYLPSKGRGNNVLVIDGQQKRFCCQSCVSEYKQVG [A17R] reads -0.628 ± 0.11; that for IMNCCEQCGEYLPSKGDGNNVLVIDGQQKRFCCQSCVSEYKQVG [A17D], 0.012 ± 0.15.

For the variant IMNCCEQCGEYLPSKGAGNNVLVIDGQQKRFFCQSCVSEYKQVG [C32F], the abundance fitness is -0.653 ± 0.36. Same read-out and setting: then IMNCCEQCGEYLPSKGAGNNVLVIDGQQKRFVCQSCVSEYKQVG [C32V], with -0.36 ± 0.077; and IMNCCEQCGEYLPSKGAGNNVLVIDGQQKRFCCQSCVSEVKQVG [Y40V], with -0.108 ± 0.1. As to IMNCCEQCGEYLPSKGAGNNVLVIDGQQKRFCCQSCVSEQKQVG [Y40Q], the abundance fitness was determined as 0.067 ± 0.12. Still for that read-out and setting: the result for IMNCCEQCGEYLPSKGAGNNVLVIDGQQKRFCCQSCVSEMKQVG [Y40M] reads -0.167 ± 0.12. Same read-out and setting: the result for IMDCCEQCGEYLPSKGAGNNVLVIDGQQKRFCCQSCVSEYKQVG [N3D] reads -0.045 ± 0.12; that for IMECCEQCGEYLPSKGAGNNVLVIDGQQKRFCCQSCVSEYKQVG [N3E], -0.036 ± 0.087; that for IMFCCEQCGEYLPSKGAGNNVLVIDGQQKRFCCQSCVSEYKQVG [N3F], -0.035 ± 0.34. The same measure, in the same setting: the result for IMICCEQCGEYLPSKGAGNNVLVIDGQQKRFCCQSCVSEYKQVG [N3I] reads -0.237 ± 0.32. Regarding IMNCCEQCGEYLPSKGAGNNVLVIDGQQKRFCCQSYVSEYKQVG [C36Y], the abundance fitness is -0.445 ± 0.15.

For IMNCCEQCGEYLPSKGAGNNVLVIDGRQKRFCCQSCVSEYKQVG [Q27R], the abundance fitness was -0.206 ± 0.091. For the variant IMNCCEQCGEYLPSKGAGNRVLVIDGQQKRFCCQSCVSEYKQVG [N20R], the abundance fitness was -0.285 ± 0.086.

For IMNCCEQCGEYLPSKGAGNHVLVIDGQQKRFCCQSCVSEYKQVG [N20H], the abundance fitness amounted to 0.087 ± 0.16.

As for IMNCCEQAGEYLPSKGAGNNVLVIDGQQKRFCCQSCVSEYKQVG [C8A], the abundance fitness was -0.505 ± 0.083.

With IMNLCEQCGEYLPSKGAGNNVLVIDGQQKRFCCQSCVSEYKQVG [C4L], the abundance fitness was -0.09 ± 0.07. Still for that read-out and setting: the result for IMNRCEQCGEYLPSKGAGNNVLVIDGQQKRFCCQSCVSEYKQVG [C4R] reads 0.012 ± 0.069; that for IMNCCEQCGEYLPSKGAGNNVLTIDGQQKRFCCQSCVSEYKQVG [V23T], 0.15 ± 0.13; that for IMNCCEQCGEYLPSKGAGNNVLNIDGQQKRFCCQSCVSEYKQVG [V23N], -0.123 ± 0.1. For the variant IMNCCEQCGEYLPSKGAGNNVLLIDGQQKRFCCQSCVSEYKQVG [V23L], the abundance fitness is -0.235 ± 0.1. Same read-out and setting: then IMNCCEQCGEYLPSKGAGNNVLVIDGQQKRFCCQSCQSEYKQVG [V37Q], with -0.024 ± 0.14; and IMNCCEQCGEYLPSKGAGNNVLVIDGQQKRFCCRSCVSEYKQVG [Q34R], with -0.232 ± 0.077. IMNCCEQCGEYLPSKGAGNNVLVIDGQQKRFCCWSCVSEYKQVG [Q34W]: the abundance fitness was -0.226 ± 0.082. The same measure, in the same setting: then IMNCCEQCGEYLPSKGAGNNVLVIDGQQKRFCCSSCVSEYKQVG [Q34S], with 0.009 ± 0.085.

The next series covers variants of B2. The series is described as above. Particulars: Homo sapiens.
Take C50L: the abundance fitness is -0.797 ± 0.11. Same read-out and setting: the result for C50M reads -0.65 ± 0.19; that for C50F, -0.315 ± 0.18; that for C50N, -0.505 ± 0.35. Still for that read-out and setting: then C50E, with -0.232 ± 0.12; and C50V, with -0.513 ± 0.1; and C50D, with -0.183 ± 0.17. Take C50K: the abundance fitness is -0.1 ± 0.16. With C50Y, the abundance fitness was -1.03 ± 0.34. Same read-out and setting: the result for C50T reads -0.386 ± 0.13; that for C50R, -0.214 ± 0.11; that for C50A, -0.112 ± 0.096. Same read-out and setting: the result for C50S reads -0.462 ± 0.12; that for C50Q, -0.329 ± 0.16. On the same count and under the same terms, the result for C50G reads -0.278 ± 0.098; that for C50P, 0.037 ± 0.15; that for H51C, -0.281 ± 0.22. Consider H51I, for which the abundance fitness is -0.264 ± 0.18.

As to H51S, the abundance fitness came to 0.109 ± 0.11.

Turning to H51T, the abundance fitness stood at 0.31 ± 0.17. Consider H51D, for which the abundance fitness came out at 0.041 ± 0.11.
